Experimental findings from patent US7745587 (DYAX, dated 2010) are described below.

The target of one test is human MMP-14 (human, UniProt P50281 112-541, limits assumed). In words: cell-based or functional assay.
Another test concerns the target MMP-24 (human, UniProt Q9Y5R2 156-328, limits assumed). In words: cell-based or functional assay.

Chain of MMP-24 (Q9Y5R2 156-328 limits assumed): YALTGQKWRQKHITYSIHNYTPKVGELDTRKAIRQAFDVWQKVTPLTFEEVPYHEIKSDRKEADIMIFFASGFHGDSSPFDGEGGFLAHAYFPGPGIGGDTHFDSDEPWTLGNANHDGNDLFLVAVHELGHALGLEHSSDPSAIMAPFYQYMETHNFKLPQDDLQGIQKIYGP

B1: M0031-F01 Fab (Fab, V domains shown)
VH: EVQLLESGGGLVQPGGSLRLSCAASGFTFSTYEMHWVRQAPGKGLEWVSSIYSSGGWTGYADSVKGRFTISRDNSKNTLYLQMNSLRAEDTAVYYCARSQQYYDFSSRYYGMDVWGQGTTVTVSS
VL: QSELTQPPSVSGTPGQRVTISCSGTSANIGRNAVHWYQQLPGTAPKLLIHSNNRRPSGVPDRFSGSKSGTSASLAISGLQSEDEADYYCAAWENSLNAFYVFGTGTKVTVL
Consider B1, for which the “IC50 of MMP-14 inhibition (MMP-14 at 2 pM), Fab” value (from here on “IC50 of MMP-14 inhibition … Fab”) in the test with human MMP-14 is 25.3 nM.

B2: M0031-F01 IgG (antibody, V domains shown)
VH: EVQLLESGGGLVQPGGSLRLSCAASGFTFSTYEMHWVRQAPGKGLEWVSSIYSSGGWTGYADSVKGRFTISRDNSKNTLYLQMNSLRAEDTAVYYCARSQQYYDFSSRYYGMDVWGQGTTVTVSS
VL: QSELTQPPSVSGTPGQRVTISCSGTSANIGRNAVHWYQQLPGTAPKLLIHSNNRRPSGVPDRFSGSKSGTSASLAISGLQSEDEADYYCAAWENSLNAFYVFGTGTKVTVL
In the case of B2, the “IC50 of MMP-14 inhibition (MMP-14 at 2 pM), IgG” value (shortened to “IC50 of MMP-14 inhibition … IgG”) with human MMP-14 stood at 15.2 nM.

B3: M0038-F08 Fab (Fab, V domains shown)
VH: EVQLLESGGGLVQPGGSLRLSCAASGFTFSRYKMWWVRQAPGKGLEWVSGIRPSGGLTRYADSVKGRFTISRDNSKNTLYLQMNSLRAEDTAVYYCARRGDYVGGFDYWGQGTLVTVSS
VL: DIQMTQSPGTLSLSPGERATLSCRASQSVSSSYLAWYQQKPGQAPRLLIYGASSRATGIPDRFSGSGSGTDFTLTISRLEPEDFAVYYCQHYGGSQAFGGGTKVEIK
In the case of B3, in the test with human MMP-14, the “IC50 of MMP-14 inhibition … Fab” value was 31.1 nM.

B4: M0038-F08 IgG (antibody, V domains shown)
VH: EVQLLESGGGLVQPGGSLRLSCAASGFTFSRYKMWWVRQAPGKGLEWVSGIRPSGGLTRYADSVKGRFTISRDNSKNTLYLQMNSLRAEDTAVYYCARRGDYVGGFDYWGQGTLVTVSS
VL: DIQMTQSPGTLSLSPGERATLSCRASQSVSSSYLAWYQQKPGQAPRLLIYGASSRATGIPDRFSGSGSGTDFTLTISRLEPEDFAVYYCQHYGGSQAFGGGTKVEIK
In the case of B4, the “IC50 of MMP-14 inhibition … IgG” value with human MMP-14 stood at 23 nM.

B5: M0037-D01 Fab (Fab, V domains shown)
VH: EVQLLESGGGLVQPGGSLRLSCAASGFTFSMYMMIWVRQAPGKGLEWVSSIYPSGGNTMYADSVKGRFTISRDNSKNTLYLQMNSLRAEDTAVYYCATGVLRYFDWDAGSGMDVWGQGTTVTVSS
VL: DIQMTQSPSSLSASVGDRVTITCRASQGIRNDLGWYQQKPGKAPKRLIYVASSLQSGVPSRFSGSGSGTEFTLTISSLQPEDFATYYCLQHNSYPWTFGQGTKVEIK
Consider B5, for which the “IC50 of MMP-14 inhibition … Fab” value in the test with human MMP-14 stood at 4.3 nM.

B6: M0038-F01 Fab (Fab, V domains shown)
VH: EVQLLESGGGLVQPGGSLRLSCAASGFTFSLYSMNWVRQAPGKGLEWVSSIYSSGGSTLYADSVKGRFTISRDNSKNTLYLQMNSLRAEDTAVYYCARGRAFDIWGQGTMVTVSS
VL: DIQMTQSPSSLSAFVGDKVTITCRASQSVGTYLNWYQQKAGKAPELLIYATSNLRSGVPSRFSGSGSGTDFTLTINTLQPEDFATYYCQQSYSIPRFTFGPGTKVDIK
In the case of B6, in the test with human MMP-14, the “IC50 of MMP-14 inhibition … Fab” value was found to be 3.8 nM.

B7: M0033-H07 Fab (Fab, V domains shown)
VH: EVQLLESGGGLVQPGGSLRLSCAASGFTFSVYGMVWVRQAPGKGLEWVSVISSSGGSTWYADSVKGRFTISRDNSKNTLYLQMNSLRAEDTALYYCARPFSRRYGVFDYWGQGTLVTVSS
VL: DIQMTQSPSSLSASVGDRVTITCRASQGIRNFLAWYQQKPGKVPKLLVFGASALQSGVPSRFSGSGSGTDFTLTISGLQPEDVATYYCQKYNGVPLTFGGGTKVEIK
With B7, in the test with human MMP-14, the “IC50 of MMP-14 inhibition … Fab” value is 11.5 nM.

B8: M0043-G02 Fab (Fab, V domains shown)
VH: EVQLLESGGGLVQPGGSLRLSCAASGFTFSWYPMFWVRQAPGKGLEWVSGIYSSGGPTDYADSVKGRFTISRDNSKNTLYLQMNSLRAEDTAVYYCAKDTLGRYYDFWSGYSYGMDVWGQGTTVTVSS
VL: DIQMTQSPGTLSLSPGERATLSCRASQSVSSSYLAWYQQKPGQAPRLLIYGASSRATGIPDRFSGSGSGTDFTLTISRLEPEDFAVYYCQSGVTFGGGTKVEIK
Consider B8, for which, in the test with human MMP-14, the “IC50 of MMP-14 inhibition … Fab” value is 9.3 nM. Further, the “MMP-24 activity, 100 nM final Fab with 5 nM MMP-24” value (“MMP-24 activity, 100 nM final Fab” for short) with MMP-24 worked out at 74 % inhibition.

B9: M0037-C09 Fab (Fab, V domains shown)
VH: EVQLLESGGGLVQPGGSLRLSCAASGFTFSHYEMFWVRQAPGKGLEWVSSISPSGGQTHYADSVKGRFTISRDNSKNTLYLQMNSLRAEDTAVYYCATDRTYYDFWSGYGPLWYWGQGTLVTVSS
VL: DIQMTQSPLSLPVTLGESASVSCRSSQSLLHENGHNYLDWYLQKPGQSPQLLIYLGSNRASGVPDRFSGSGSGTDFTLKISRVEAEDVGVYYCMQSLKTPPTFGPGTKVEIK
For the molecule B9, the “IC50 of MMP-14 inhibition … Fab” value in the test with human MMP-14 is 11.5 nM. Further, the “MMP-24 activity, 100 nM final Fab” value in the test with MMP-24 turned out to be 72 % inhibition.

B10: M0040-A11 Fab (Fab, V domains shown)
VH: EVQLLESGGGLVQPGGSLRLSCAASGFTFSHYVMFWVRQAPGKGLEWVSRIVPSGGATMYADSVKGRFTISRDNSKNTLYLQMNSLRAEDTAVYYCARDRPLYDSSGYVDYWGQGTLVTVSS
VL: QSALTQPPSASGSPGQSVTISCTGTSSDVGAYNYVSWYQQHPDKAPKLIIYNVNERPSGVPDRFSGSKSGNTASLTVSGLQAEDEADYYCTSYAGSNKIGVSGTGTKVTVL
Turning to B10, in the test with human MMP-14, the “IC50 of MMP-14 inhibition … Fab” value worked out at 23.2 nM. Also, the “MMP-24 activity, 100 nM final Fab” value with MMP-24 was determined as 58 % inhibition.

B11: M0040-A11 IgG (antibody, V domains shown)
VH: EVQLLESGGGLVQPGGSLRLSCAASGFTFSHYVMFWVRQAPGKGLEWVSRIVPSGGATMYADSVKGRFTISRDNSKNTLYLQMNSLRAEDTAVYYCARDRPLYDSSGYVDYWGQGTLVTVSS
VL: QSALTQPPSASGSPGQSVTISCTGTSSDVGAYNYVSWYQQHPDKAPKLIIYNVNERPSGVPDRFSGSKSGNTASLTVSGLQAEDEADYYCTSYAGSNKIGVSGTGTKVTVL
B11: the “IC50 of MMP-14 inhibition … IgG” value with human MMP-14 was 6.7 nM.

B12: M0038-E06 Fab (Fab, V domains shown)
VH: EVQLLESGGGLVQPGGSLRLSCAASGFTFSPYVMHWVRQAPGKGLEWVSSISPSGGWTYYADSVKGRFTISRDNSKNTLYLQMNSLRAEDMAVYYCARGTGAYGMDVWGQGTTVTVSS
VL: DIQMTQSPGTLSLSPGDRATLSCGASQLVVSNYIAWYQQKPGQAPRLLMYAGSIRATGIPDRFSGSGSGTDFTLTISRLEPEDFAIYYCQQRSNWPWTFGQGTKVEIK
Regarding B12, in the test with human MMP-14, the “IC50 of MMP-14 inhibition … Fab” value was found to be 16.6 nM.

B13: M0038-E06 IgG (antibody, V domains shown)
VH: EVQLLESGGGLVQPGGSLRLSCAASGFTFSPYVMHWVRQAPGKGLEWVSSISPSGGWTYYADSVKGRFTISRDNSKNTLYLQMNSLRAEDMAVYYCARGTGAYGMDVWGQGTTVTVSS
VL: DIQMTQSPGTLSLSPGDRATLSCGASQLVVSNYIAWYQQKPGQAPRLLMYAGSIRATGIPDRFSGSGSGTDFTLTISRLEPEDFAIYYCQQRSNWPWTFGQGTKVEIK
For B13, the “IC50 of MMP-14 inhibition … IgG” value with human MMP-14 was found to be 7.2 nM.

B14: M0040-A06 Fab (Fab, V domains shown)
VH: EVQLLESGGGLVQPGGSLRLSCAASGFTFSYYGMYWVRQAPGKGLEWVSSISSSGGYTDYADSVKGRFTISRDNSKNTLYLQMNSLRAEDTAVYYCARRIKYYDIEGEGAFDIWGQGTMVTVSS
VL: DIVMTQTPPSLPVNPGEPASISCRSSQSLLHRNGYNYLDWYLQKPGQSPQLLIHLGSYRASGVPDRFSGSGSGTDFTLKISRVEAEDVGVYYCMQPLQTPFTFGPGTKVDIK
Turning to B14, in the test with human MMP-14, the “IC50 of MMP-14 inhibition … Fab” value was 8.6 nM. In addition, in the test with MMP-24, the “MMP-24 activity, 100 nM final Fab” value amounted to 65 % inhibition.

B15: M0040-A06 IgG (antibody, V domains shown)
VH: EVQLLESGGGLVQPGGSLRLSCAASGFTFSYYGMYWVRQAPGKGLEWVSSISSSGGYTDYADSVKGRFTISRDNSKNTLYLQMNSLRAEDTAVYYCARRIKYYDIEGEGAFDIWGQGTMVTVSS
VL: DIVMTQTPPSLPVNPGEPASISCRSSQSLLHRNGYNYLDWYLQKPGQSPQLLIHLGSYRASGVPDRFSGSGSGTDFTLKISRVEAEDVGVYYCMQPLQTPFTFGPGTKVDIK
Turning to B15, the “IC50 of MMP-14 inhibition … IgG” value in the test with human MMP-14 came to 1.7 nM.

B16: M0031-C02 Fab (Fab, V domains shown)
VH: EVQLLESGGGLVQPGGSLRLSCAASGFTFSPYPMGWVRQAPGKGLEWVSSIVSSGGLTLYADSVKGRFTISRDNSKNTLYLQMNSLRAEDTAVYYCARGGRLYDILTGQGAPFDYWGQGTLVTVSS
VL: DIQMTQSPLSLPVTPGEPASISCRSSQSLLHSNGYYYLDWYLQKPGQSPQLLIYLGSYRASGVPDRFSGSGSGTDFTLKISSVEAEDVGVYYCMQALQTPLTFGGGTRVDIK
For the molecule B16, in the test with human MMP-14, the “IC50 of MMP-14 inhibition … Fab” value worked out at 56 nM. The “MMP-24 activity, 100 nM final Fab” value with MMP-24 came to 54 % inhibition.

B17: M0031-C02 IgG (antibody, V domains shown)
VH: EVQLLESGGGLVQPGGSLRLSCAASGFTFSPYPMGWVRQAPGKGLEWVSSIVSSGGLTLYADSVKGRFTISRDNSKNTLYLQMNSLRAEDTAVYYCARGGRLYDILTGQGAPFDYWGQGTLVTVSS
VL: DIQMTQSPLSLPVTPGEPASISCRSSQSLLHSNGYYYLDWYLQKPGQSPQLLIYLGSYRASGVPDRFSGSGSGTDFTLKISSVEAEDVGVYYCMQALQTPLTFGGGTRVDIK
B17: in the test with human MMP-14, the “IC50 of MMP-14 inhibition … IgG” value was found to be 8 nM.

B18: M0039-H08 Fab (Fab, V domains shown)
VH: EVQLLESGGGLVQPGGSLRLSCAASGFTFSAYNMGWVRQAPGKGLEWVSSISSSGGYTGYADSVKGRFTISRDNSKNTLYLQMNSLRAEDTAVYYCARDLYRGFDYWGQGTLVTVSS
VL: DIQMTQSPATLSVSPGERATLSCRASESVKNNLAWYQQKPGQAPRLLIYGVSTRAPGIPARFSGSGSGTDFTLTISSLEPEDFAVYYCQQRSNWPPVTFGQGTRLEIK
In the case of B18, the “IC50 of MMP-14 inhibition … Fab” value with human MMP-14 turned out to be 23 nM.

B19: M0039-H08 IgG (antibody, V domains shown)
VH: EVQLLESGGGLVQPGGSLRLSCAASGFTFSAYNMGWVRQAPGKGLEWVSSISSSGGYTGYADSVKGRFTISRDNSKNTLYLQMNSLRAEDTAVYYCARDLYRGFDYWGQGTLVTVSS
VL: DIQMTQSPATLSVSPGERATLSCRASESVKNNLAWYQQKPGQAPRLLIYGVSTRAPGIPARFSGSGSGTDFTLTISSLEPEDFAVYYCQQRSNWPPVTFGQGTRLEIK
In the case of B19, the “IC50 of MMP-14 inhibition … IgG” value in the test with human MMP-14 came to 7.4 nM.
